Laboratory results published in patent US20120117691, “TRANSCRIPTION FACTORS FOR MODIFICATION OF LIGNIN CONTENT IN PLANTS” (The Samuel Roberts Noble Foundation, Inc., published 2012).

Experiments:
AtWRKY12 [1] = target: T1, AtWRKY12 (Arabidopsis thaliana, UniProt Q93WY4 SEQ:1-218); experiment: EMSA; 100 ng protein, 20 min, Pierce EMSA kit buffer; conditions: tags: MBP fusion, expressed in E. coli, amylose resin purified; label: 5' biotin on one strand
From the text: (§1) To express the recombinant AtWRKY12 protein, the coding sequence was fused in frame with maltose binding protein (MBP), expressed in E. coli, and the recombinant protein was purified using amylose resin. The pure protein was used for EMSA with the NST2 or C3H promoter fragments. Double-strand probe and competitor fragments were made from annealing of separately synthesized strands, with/without one 5′ biotin labeled strand. The sequence used for NST2 was:
(§2) For C3H the sequence was: 5′-[…]-3′ (SEQ ID NO:42); and for C3HL the sequence was 5′-[…]-3′ (SEQ ID NO:43). The conserved WRKY binding motifs are underlined. The biotin-labeled and competitor DNA fragments were incubated for 20 min with 100 ng of AtWRKY12-MBP in binding buffer according to the EMSA kit protocol (Pierce, Rockford, Ill.), and reaction mixtures were loaded for polyacrylamide gel electrophoresis. The DNA was electroblotted onto nitrocellulose membrane and detected by the chemiluminescent method.

AtWRKY12 [2] = target: T1, AtWRKY12; experiment: EMSA; 100 ng protein, 20 min; no binding detected; conditions: tags: MBP fusion, expressed in E. coli, amylose resin purified; label: 5' biotin on one strand
From the text: as §1, §2

T1 sequence (Q93WY4 whole entry, the tested form may be a part): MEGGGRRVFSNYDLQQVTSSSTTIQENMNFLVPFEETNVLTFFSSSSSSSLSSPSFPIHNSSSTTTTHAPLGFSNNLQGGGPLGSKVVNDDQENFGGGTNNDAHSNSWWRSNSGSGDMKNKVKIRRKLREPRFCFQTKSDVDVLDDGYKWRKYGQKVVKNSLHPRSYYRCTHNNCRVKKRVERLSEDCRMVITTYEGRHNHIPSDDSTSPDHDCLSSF

Row | Binder | binding result (AtWRKY12 [1]) | binding result (AtWRKY12 [2])
1 | NST2 promoter fragment (dsDNA) DNA 1: AAAGAGACCATTAGTATATTTGACCCAAAAAAAAATAAAAAAAAAAGAG DNA 2: CTCTTTTTTTTTTATTTTTTTTTGGGTCAAATATACTAATGGTCTCTTT | binds | –
2 | C3H14 promoter fragment (dsDNA) DNA 1: TGGAAGATGCATGTTATTGACTAAATATGATCTACCA DNA 2: TGGTAGATCATATTTAGTCAATAACATGCATCTTCCA | – | no binding
3 | C3H14L promoter fragment (dsDNA) DNA 1: TGGCTTAAATCATATTGACAAGACCCATTAAAAAGAGG DNA 2: CCTCTTTTTAATGGGTCTTGTCAATATGATTTAAGCCA | – | no binding
